# Test results reported in patent US20170037111A1, “Novel peptides and combination of peptides for use in immunotherapy against ovarian cancer and other cancers” (immatics biotechnologies GmbH, priority 2015, published 2017).
# Biological target: HLA-A*02:01 (Homo sapiens, UniProt P04439, D140Y/D185E/D98H/E176V/E277Q/G131W/G231S/I119V/I121R/I166T/I218V/L300P/L318F/N151K/N90K/P208A/P217A/Q86G/Q94H/R138H/R169H/T345S)
# Assay: MHC binding assay (UV-ligand exchange, β2m ELISA, peptide exchange yield)
# Conditions: MHC class I binding score; binding to HLA-A*02:01 ranged by peptide exchange yield (UV-ligand exchange, β2m ELISA)
# In short: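 Peptide–HLA-A*02:01 complexes were formed by UV-mediated exchange of a UV-cleavable ligand for the test peptide. Exchange yield was measured by capturing complexes on streptavidin, detecting with HRP anti-β2m antibody (1 h, 37°C) and reading TMB absorbance at 450 nm.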
row,Substance,Peptide exchange
1,552 (GLLDLPFRVGV; listed as Homo sapiens) [compound 552],″++++″ (≧75% = ++++)
2,587 (VMNDRLYAI; listed as Homo sapiens) [compound 587],″+++″ (≧50% = +++)
3,244 (SLFGGTEITI; listed as Homo sapiens) [compound 244],″+++″ (≧50% = +++)
4,351 (SLIPNLRNV; listed as Homo sapiens) [compound 351],″+++″ (≧50% = +++)
5,320 (KMFEFVEPLL; listed as Homo sapiens) [compound 320],″++++″ (≧75% = ++++)
6,286 (YLFPGIPEL; listed as Homo sapiens) [compound 286],″+++″ (≧50% = +++)
7,329 (FLVTLNNVEV; listed as Homo sapiens) [compound 329],″++++″ (≧75% = ++++)
8,207 (GLTSTNAEV; listed as Homo sapiens) [compound 207],″++″ (≧20% = ++)
9,569 (KLVDRTWTL; listed as Homo sapiens) [compound 569],″+++″ (≧50% = +++)
10,456 (LLIGHLERV; listed as Homo sapiens) [compound 456],″+++″ (≧50% = +++)
11,578 (FLDPGGPMMKL; listed as Homo sapiens) [compound 578],″+++″ (≧50% = +++)
12,314 (ALIAEGIALV; listed as Homo sapiens) [compound 314],″+++″ (≧50% = +++)
13,593 (GLPRFGIEMV; listed as Homo sapiens) [compound 593],″+++″ (≧50% = +++)
14,558 (GLLENIPRV; listed as Homo sapiens) [compound 558],″+++″ (≧50% = +++)
15,453 (KLLEATSAV; listed as Homo sapiens) [compound 453],″++″ (≧20% = ++)
16,613 (RLLPPGAVVAV; listed as Homo sapiens) [compound 613],″+++″ (≧50% = +++)
17,455 (SLLKEPQKVQL; listed as Homo sapiens) [compound 455],″++″ (≧20% = ++)
18,565 (ALQETPTSV; listed as Homo sapiens) [compound 565],″++″ (≧20% = ++)

row,Substance,Peptide exchange
1,270 (LLLDEEGTFSL; listed as Homo sapiens) [compound 270],″++″ (≧20% = ++)
2,597 (KLLEGQVIQL; listed as Homo sapiens) [compound 597],″+++″ (≧50% = +++)
3,427 (ALLPLSPYL; listed as Homo sapiens) [compound 427],″+++″ (≧50% = +++)
4,194 (ALPLFVITV; listed as Homo sapiens) [compound 194],″+++″ (≧50% = +++)
5,255 (VLASYNLTV; listed as Homo sapiens) [compound 255],″+++″ (≧50% = +++)
6,127 (KIGDEPPKV; listed as Homo sapiens) [compound 127],″++″ (≧20% = ++)
7,346 (LLDSKVPSV; listed as Homo sapiens) [compound 346],″+++″ (≧50% = +++)
8,185 (FLIDDKGYTL; listed as Homo sapiens) [compound 185],″++″ (≧20% = ++)
9,345 (VIWKALIHL; listed as Homo sapiens) [compound 345],″+++″ (≧50% = +++)
10,22 (IMEENPGIFAV; listed as Homo sapiens) [compound 22],″+++″ (≧50% = +++)
11,363 (KVLDVSDLESV; listed as Homo sapiens) [compound 363],″++″ (≧20% = ++)
12,229 (RLPGPLGTV; listed as Homo sapiens) [compound 229],″++″ (≧20% = ++)
13,584 (ALAEVAAMENV; listed as Homo sapiens) [compound 584],″+++″ (≧50% = +++)
14,114 (SLVGEPILQNV; listed as Homo sapiens) [compound 114],″++″ (≧20% = ++)
15,377 (FLLDSSASV; listed as Homo sapiens) [compound 377],″++″ (≧20% = ++)
16,612 (YLYNEGLSV; listed as Homo sapiens) [compound 612],″+++″ (≧50% = +++)
17,361 (ALYELEGTTV; listed as Homo sapiens) [compound 361],″+++″ (≧50% = +++)

# More lines, now with the values ahead:
row,Peptide exchange,Substance
1,″+++″ (≧50% = +++),151 (KILQQLVTL; listed as Homo sapiens) [compound 151]
2,″++″ (≧20% = ++),579 (NLMEMVAQL; listed as Homo sapiens) [compound 579]
3,″+++″ (≧50% = +++),74 (ALLDPEVLSIFV; listed as Homo sapiens) [compound 74]
4,″+++″ (≧50% = +++),539 (ALFDAQAQV; listed as Homo sapiens) [compound 539]
5,″++″ (≧20% = ++),274 (SLLFSLFEA; listed as Homo sapiens) [compound 274]
6,″+++″ (≧50% = +++),501 (LLDPNVKSIFV; listed as Homo sapiens) [compound 501]
7,″++″ (≧20% = ++),522 (TLWYRSPEV; listed as Homo sapiens) [compound 522]
8,″+++″ (≧50% = +++),45 (SLWQDIPDV; listed as Homo sapiens) [compound 45]
9,″+++″ (≧50% = +++),144 (YIMEPSIFNTL; listed as Homo sapiens) [compound 144]
10,″+++″ (≧50% = +++),614 (LLLPDQPPYHL; listed as Homo sapiens) [compound 614]
11,″++″ (≧20% = ++),222 (NLIENVQRL; listed as Homo sapiens) [compound 222]
12,″+++″ (≧50% = +++),598 (FLFPHSVLV; listed as Homo sapiens) [compound 598]
13,″++++″ (≧75% = ++++),137 (TLVLTLPTV; listed as Homo sapiens) [compound 137]
14,″+++″ (≧50% = +++),249 (LLDGFLVNV; listed as Homo sapiens) [compound 249]
15,″+++″ (≧50% = +++),264 (SLQEQLHSV; listed as Homo sapiens) [compound 264]
16,″+++″ (≧50% = +++),325 (FIMPATVADATAV; listed as Homo sapiens) [compound 325]
17,″+++″ (≧50% = +++),200 (LLFGSVQEV; listed as Homo sapiens) [compound 200]
18,″+++″ (≧50% = +++),336 (ILLTAIVQV; listed as Homo sapiens) [compound 336]
19,″+++″ (≧50% = +++),607 (RLYSGISGLEL; listed as Homo sapiens) [compound 607]
20,″++++″ (≧75% = ++++),305 (SIANFSEFYV; listed as Homo sapiens) [compound 305]
21,″++″ (≧20% = ++),63 (YLLPSGGSVTL; listed as Homo sapiens) [compound 63]

row,Peptide exchange,Substance
1,″++++″ (≧75% = ++++),387 (ALFQATAEV; listed as Homo sapiens) [compound 387]
2,″+++″ (≧50% = +++),35 (KINDTIYEV; listed as Homo sapiens) [compound 35]
3,″++++″ (≧75% = ++++),168 (KILDADIQL; listed as Homo sapiens) [compound 168]
4,″++″ (≧20% = ++),18 (YLVAKLVEV; listed as Homo sapiens) [compound 18]
5,″++++″ (≧75% = ++++),55 (SLLDLETLSL; listed as Homo sapiens) [compound 55]
6,″++++″ (≧75% = ++++),53 (KMIETDILQKV; listed as Homo sapiens) [compound 53]
7,″+++″ (≧50% = +++),469 (YLASDEITTV; listed as Homo sapiens) [compound 469]
8,″+++″ (≧50% = +++),487 (LLINSVFHV; listed as Homo sapiens) [compound 487]
9,″+++″ (≧50% = +++),239 (AAFAGKLLSV; listed as Homo sapiens) [compound 239]
10,″+++″ (≧50% = +++),465 (QLCDLNAEL; listed as Homo sapiens) [compound 465]
11,″+++″ (≧50% = +++),20 (RMIEYFIDV; listed as Homo sapiens) [compound 20]
12,″++++″ (≧75% = ++++),100 (YLLSTNAQL; listed as Homo sapiens) [compound 100]
13,″+++″ (≧50% = +++),208 (KISPVTFSV; listed as Homo sapiens) [compound 208]
14,″+++″ (≧50% = +++),622 (RLLGEEVVRVLQA; listed as Homo sapiens) [compound 622]
15,″+++″ (≧50% = +++),394 (LLAVIGGLVYL; listed as Homo sapiens) [compound 394]
16,″+++″ (≧50% = +++),6 (VLVSDGVHSV; listed as Homo sapiens) [compound 6]
17,″+++″ (≧50% = +++),588 (SLLPLSHLV; listed as Homo sapiens) [compound 588]
18,″+++″ (≧50% = +++),551 (KLYESLLPFA; listed as Homo sapiens) [compound 551]
19,″+++″ (≧50% = +++),512 (SLSEIVPCL; listed as Homo sapiens) [compound 512]
20,″+++″ (≧50% = +++),311 (RLYTGMHTV; listed as Homo sapiens) [compound 311]
21,″++″ (≧20% = ++),279 (ALWGGTQPLL; listed as Homo sapiens) [compound 279]
